Data reported in article PMC8488672 (Proceedings of the National Academy of Sciences of the …, 2021).

T1: full-length CD248 transiently expressed on cells (UniProt Q9HCU0 18-757)
T1 sequence: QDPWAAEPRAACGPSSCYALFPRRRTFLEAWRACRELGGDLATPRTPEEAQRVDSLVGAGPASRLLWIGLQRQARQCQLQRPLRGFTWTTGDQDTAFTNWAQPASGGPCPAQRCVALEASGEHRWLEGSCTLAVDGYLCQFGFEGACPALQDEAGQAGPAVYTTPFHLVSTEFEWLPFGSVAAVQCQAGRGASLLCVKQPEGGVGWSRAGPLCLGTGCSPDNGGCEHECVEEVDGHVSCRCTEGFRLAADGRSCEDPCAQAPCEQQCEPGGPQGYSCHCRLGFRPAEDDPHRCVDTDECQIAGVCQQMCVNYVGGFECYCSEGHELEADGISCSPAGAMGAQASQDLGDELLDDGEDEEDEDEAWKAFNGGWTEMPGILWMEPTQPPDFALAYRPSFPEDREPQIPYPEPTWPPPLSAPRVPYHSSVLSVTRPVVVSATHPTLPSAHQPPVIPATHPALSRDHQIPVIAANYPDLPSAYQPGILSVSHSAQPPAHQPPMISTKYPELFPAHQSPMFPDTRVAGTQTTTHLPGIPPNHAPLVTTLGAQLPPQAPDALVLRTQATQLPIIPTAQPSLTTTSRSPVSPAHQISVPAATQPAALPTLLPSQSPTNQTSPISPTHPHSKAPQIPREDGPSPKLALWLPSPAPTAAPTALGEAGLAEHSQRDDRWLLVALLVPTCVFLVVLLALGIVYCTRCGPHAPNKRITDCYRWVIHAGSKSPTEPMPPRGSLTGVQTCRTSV

T2: gD-GPI CD248 transiently expressed on cells (UniProt Q9HCU0 18-687, glycosylphosphatidylinositol (GPI) lipid anchor)
T2 sequence: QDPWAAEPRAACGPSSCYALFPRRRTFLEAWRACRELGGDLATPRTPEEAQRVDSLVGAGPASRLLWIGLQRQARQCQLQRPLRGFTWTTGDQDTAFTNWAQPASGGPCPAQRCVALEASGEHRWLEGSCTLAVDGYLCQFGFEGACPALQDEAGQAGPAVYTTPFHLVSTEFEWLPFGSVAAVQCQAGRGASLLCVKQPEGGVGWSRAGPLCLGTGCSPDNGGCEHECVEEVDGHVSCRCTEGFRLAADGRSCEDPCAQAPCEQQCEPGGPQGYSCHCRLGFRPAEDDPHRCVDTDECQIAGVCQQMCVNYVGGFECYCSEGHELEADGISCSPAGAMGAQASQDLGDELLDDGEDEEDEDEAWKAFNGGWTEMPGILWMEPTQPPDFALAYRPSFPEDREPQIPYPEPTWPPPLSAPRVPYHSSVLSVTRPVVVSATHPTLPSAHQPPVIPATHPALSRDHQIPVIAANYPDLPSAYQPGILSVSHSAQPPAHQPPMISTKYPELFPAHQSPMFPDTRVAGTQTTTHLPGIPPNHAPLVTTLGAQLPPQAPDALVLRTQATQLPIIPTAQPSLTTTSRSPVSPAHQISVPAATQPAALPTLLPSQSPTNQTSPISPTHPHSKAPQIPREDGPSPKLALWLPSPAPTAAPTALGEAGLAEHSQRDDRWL


Experiments:
Assay in all cases: fluorescence microscopy of rEV binding to transfected cells
[1] = target: gD-GPI CD248 transiently expressed on cells (UniProt Q9HCU0)
[2] = target: T1, full-length CD248 transiently expressed …
[3] = target: T2, gD-GPI CD248 transiently expressed on …

fold binding over cells transfected with an empty vector control [1] [fold] | fold binding over cells transfected with an empty vector control [2] [fold] | fold binding over cells transfected with an empty vector control [3] [fold] | Molecule
> 10 | – | – | gD-GPI–tagged LRRC15 ectodomain displayed on rEVs (from UniProt Q8TF66 22-538) (domain or fragment)
– | > 10 | > 10 | full-length LRRC15 displayed on rEVs (receptor) YHGCPSECTCSRASQVECTGARIVAVPTPLPWNAMSLQILNTHITELNESPFLNISALIALRIEKNELSRITPGAFRNLGSLRYLSLANNKLQVLPIGLFQGLDSLESLLLSSNQLLQIQPAHFSQCSNLKELQLHGNHLEYIPDGAFDHLVGLTKLNLGKNSLTHISPRVFQHLGNLQVLRLYENRLTDIPMGTFDGLVNLQELALQQNQIGLLSPGLFHNNHNLQRLYLSNNHISQLPPSVFMQLPQLNRLTLFGNSLKELSPGIFGPMPNLRELWLYDNHISSLPDNVFSNLRQLQVLILSRNQISFISPGAFNGLTELRELSLHTNALQDLDGNVFRMLANLQNISLQNNRLRQLPGNIFANVNGLMAIQLQNNQLENLPLGIFDHLGKLCELRLYDNPWRCDSDILPLRNWLLLNQPRLGTDTVPVCFSPANVRGQSLIIINVNVAVPSVHVPEVPSYPETPWYPDTPSYPDTTSVSSTTELTSPVEDYTDLTTIQVTDDRSVWGMTQAQSGLAIAAIVIGIVALACSLAACVGCCCCKKRSQAVLMQMKAPNEC
– | > 10 | – | gD-GPI–tagged LRRC15 ectodomain displayed on rEVs (domain or fragment, glycosylphosphatidylinositol (GPI) lipid anchor) YHGCPSECTCSRASQVECTGARIVAVPTPLPWNAMSLQILNTHITELNESPFLNISALIALRIEKNELSRITPGAFRNLGSLRYLSLANNKLQVLPIGLFQGLDSLESLLLSSNQLLQIQPAHFSQCSNLKELQLHGNHLEYIPDGAFDHLVGLTKLNLGKNSLTHISPRVFQHLGNLQVLRLYENRLTDIPMGTFDGLVNLQELALQQNQIGLLSPGLFHNNHNLQRLYLSNNHISQLPPSVFMQLPQLNRLTLFGNSLKELSPGIFGPMPNLRELWLYDNHISSLPDNVFSNLRQLQVLILSRNQISFISPGAFNGLTELRELSLHTNALQDLDGNVFRMLANLQNISLQNNRLRQLPGNIFANVNGLMAIQLQNNQLENLPLGIFDHLGKLCELRLYDNPWRCDSDILPLRNWLLLNQPRLGTDTVPVCFSPANVRGQSLIIINVNVAVPSVHVPEVPSYPETPWYPDTPSYPDTTSVSSTTELTSPVEDYTDLTTIQVTDDRSVWGMTQAQSG
